Measured values from the domain aggregation screens of Martell et al. (2025).

Assay: soluble fraction after stress (log2 fold change); higher = more stays soluble; pooled small domains, quantitative proteomics
Conditions: stress: 50 degC
In short: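 The measure of aggregation propensity here is the base-two logarithm of the fold change in the soluble amount of each protein after stress. A higher value means more of that protein stays in solution. Stress was applied at 50°C to pooled libraries of small protein domains, read out by high-throughput quantitative proteomics.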

Sequence	soluble fraction (log2)
HMAESSLPKMPRDESKYIYHSVQPGETVYSLSKRYSVSESDIVKSNPGIDITKLSLGLEVAIPRI	0.354
HMAEVAFEEQNIEQISNLLLRIQAIFAELMTALDKEKGGEIADNLERLYVFFLEKLGDANVRKDPAP	0.00759
HMAEVHVDGVTYQFSNPEQAVKFARKIAKELGLKVEVHGETVHVK	-0.156
HMAEVTLTVREQEVLHLLARGMSNGEMAAHLYVEPTTIKYHLTGLLQKTGSRDRLQAVLWGIRAGMVH	-2.18
HMAEWIYGKNVVKQSIEEGMVLKLILQRKEDPLFVLAQEKQIPVEILDRHKMTSLVKSDRHQGVAAQI	-0.477
HMAFEDYAGEYRSAADFAESLHEDTGTEIPESLRYYIDWQALARDMALNGEIMVFQTGFDEVHIFWS	-0.517
HMAFEITSAERTRLEDIARKGLTAYTAEWKQLPASEKKALNKTGLQDFLKSMAADADSAREEEA	0.0772
HMAFKEQLKAARLAKGYTQEQLATAIGVAKSTFTGYEKGNSEPNMLTIKKLMEILEVDANYLWY	-2.49
HMAFRWQQIADTITSMIANGSYPRGSRLPTEAALADSFGVNRHTVRRAVAALRDTGLVQPRQGAGVFVIG	-1.55
HMAFYQDIAVDLRKQIIDGVYPKNSRLPNQAELAKLYTTSRVTIQKALKILQIEGLIEGRQGSGSYVKGP	-1.42
HMAGHKVDFSELPARSQAFIGKNFPTEMVKNVEMERKDAKDHYTVLLSNGTKVMFDGTSGELTGV	0.0973
HMAGISQGLAENVERRITTLLREQKEVPVHDIDFPGISRETVGQVLHQMVQEEKLLLDDGMISLSPNQ	0.143
HMAGPAGASEVANARDGDDETPLHMAARGGYPGIVRMLLAAGAKADAKSAAGLFPWNYAEDGSELHALLPR	0.0684
HMAGPTIVTNSQGVPNYHLVKRGDTVSQIAQRYGLNYRQIGAINNLDSKYTIYSGQWLKLWQG	-0.702
HMAGQWQQDQNGWKYKTDNGDHMKNTWYQDSDSRWYYFGPDGYMKSSTMTPDGYVVGSDGAWIE	-0.518
HMAGSGDLNAKYLASIPAPMKAKILKAVANHYGVSISEFEEEVTDKDAEALYEYIPTRSMAVQVLRDMKG	-0.373
HMAGSGLPVPRFVSLADDRVNARAGPGFRFPINWVYLRKGFPVEVVDEFGPWRRIRDIDGVAAWIHLSMLS	-0.85
HMAGTAFPVRIMLKGIDRIGLLNEITGYISVAMGVNMRKLNLSTEDGIFEGYIDMLVHDRTVLESMIDNL	-0.381
HMAGTELASIKEIQSLVDRSEEALSARNFFWPKDKSESMLLSFRNMFSRLKLTKMDVQIFHGIFKVMEKS	-0.0116
HMAGVSVTSLTTFWRLAADTPDTPSGADDPSGWSRTEPSIPDGYEGKLYRTIRTIMSDGTATWTSPD	-0.357
HMAGYDTYMVDRDAELLPWLLETLQRESRSKVKATLQGNGIKVNGKRVTQFNYPLKAGMKVSVSKSK	-0.0376
HMAHILDLMELKQILRLHMDGLSNRRISDTLGIHRNTINSYVSQFKASKHGIEELLKLSDYELAQLFP	-2.26
HMAHRYQQIADDLGRRVEAGEFAAGRLLPSEATLSGQYKASRVTVRKALEALRTDGLVESRQGFGWFVAAD	-0.379
HMAIADQPISAEHFDKLRQVLNSNTQETIASAKQHWASISNNAEFTNENVTRTLLEEMLAFIKSAS	0.307
HMAIDVQELARTRLRSLRTTLGYSLDELAARTHLSPSTISRLETGKRSLSLDVVVPLAQALHVSLDVLFEA	-2.68
HMAIEGIFEKYQRRSDQLIPILQDVQKEFGYIAPESVRHISRYLRISENQIFGVSSFYAQFRFT	-0.292
HMAIGTDPETGISVVADGTDFIWTRSGATSTIFLRLDSENSYILNVKQGDFEVIDYELGEGQENAINIDQS	-0.0311
HMAIPEVDPAKQGVSATQLAALDALAHRNAGEGRVAGMVNVVIRNGEIVYYKATGPRHIDGGAPLKSTDLF	-0.153

Sequence	soluble fraction (log2)
HMAIQGVRLYERTLETGDPWLDRPLSTLSTGTRLIILVRRGGDVLIPKGDTVLLAGDTLVINDS	-3.24
HMAIRPDAAVSSHAVKQRLQSLIRAEDPAAPLSDEALRLALSALGIGVSRRAVAKYRAEMGIPSSSQRKK	-0.0632
HMAISQYGSQSDEVTKIQTRLKAWGYFDGPVTAYYGSQTTEAVKKFQQKHGLSATGVADAKTLELIGLP	-0.36
HMAITLEQFLSVNPHIRNNLYGNAVELVKDKDFSVLSDKLKASSKWANEPSLYKILSHYDEIIS	0.063
HMAKDSQSADVLQAIFDGSKVLNGLALDQDMRWDLINGLVMSGRLGVEAIEAEAAKLAKLVEELEFR	-0.892
HMAKETLRANIKDYIQKQIASGVYRPGDRIVETQLAREMNVSQAPVREAILELVSLGLLEERPYSGHMVRQ	0.178
HMAKIKVFELKNQINSLIKNKIESKDIIDFIETNFGVKKSHSSALEENEANFIKNYFVHADKA	0.195
HMAKIPASTVVEIDGAPVVVAVRVNARARSYRLSIPHSGGPLLTLPPHGKWAEAEAFLLRHHNWLAARLHR	-2.47
HMAKQEPTDNGYDIYKVTASVLNVRNGAGTSYAVAYQLSKEDYVEVVSIDKGWAKLKDGKYVSADWITLYK	-0.54
HMAKRINVKLIMELSAGGLTQNEIASSRHFSKTSVNLVLKTARELNVSAADLREMSPEEAYRLFFPEK	-1.43
HMAKRKTEKTSVLEEIDGVGKARARALLARFGGLSGVKAASPEELRTVRGITPEIAENIRRYFQ	0.121
HMAKRMRNPNGYGSIVKLSGNRRNPYMVKVNTHMDERYYPVYDILGYYPTWADASIALAKYNDDPYNVS	-0.453
HMAKRQATIVYEGTNVRSGPSTSSAIVKRTGKGESYPIVSTKGDWYEIKLSNGDSAYVASWVVQTVD	-0.328
HMAKRYFVTTGVRVRTKPDTANSEVLTVLDEGSEIDYKGDYNNEWVKINYNGQEAYIAKQYVRSEE	-0.377
HMAKSDLNYLDFKSKLEAGEIAKASVIRNEDTFKVTLQNGEVYNVTSPDYEDFRKELLEAGVDIQVSK	0.114
HMAKSMRHLIVPSRETSLWRDKLSTNGWLSKGYGIHNLDDYRGIPLNETAPKIIEGLEITELEPIS	0.0863
HMAKTALEQAQAMVAAYVAAEQQILLGKEVRMGGPGIDRWLRFEDLQEVRAGRKEWESTVTRLQNTAA	-0.404
HMAKTGMDALVGRRVVLTKAIAGEGEGLVAVDGDVWRATSPAGSAIPKGTEVRITGYRSIVLEVEPI	-0.184
HMAKYEVVAKDIISRIKQNEFETTLKLPTEDEMIEYYQVSRNTVRSALKLLTSQGIIFSRQGSGFYIRQRS	-0.677
HMALALSGVDLNRNRLTISWQTSKGVSYRVQRSSDLQSWTDVGAERLGNGNRLSHTQALNTESAFLRVII	-0.0897
HMALEGTLARVSVRIPESGVGEIIFSLGGVRRSEAARSVSGRAIPRGTEVVILSYERGIATVQPYEELLTN	0.013
HMALEVPGIAKDKIYRIFGQLYERQQKWEDAIDYYNRAVFFTLSGTDMILYQEDLSRVKQKISL	-0.0269
HMALKRVAPQGEDKLSAQLDGVEFDKLIPWLGMLEHDHRIAIVNLSIDRANATGLVNARVIL	-0.0239
HMALKSGVIAHAVDDAVMRGLNVFTVSDDGSIVSMKDNDIVLGKDGKSPYSVSEWLEELKPNVPHWFG	-0.0243
HMALKSYEDMVGKTGVAYTVLRPSGKVIINDELFDATARSGMIEKGNEVIIYDYKNAQLIVEK	0.0774
HMALPASLSPREREIVSLISQGKTNSEIASLLYISVPTVKTHISNIFQKTGVSNRTSLLNRLRMS	-0.164
HMALPHEIKQKWLEEIMTMLRSSDSVTINKVYLHFPENKSHWVDEILTDLSNTHMITRQHDFIRLKN	-0.282
